Test results reported in patent US20050272649A1, “Conjoint administration of morphogens and ACE inhibitors in treatment of chronic renal failure” (priority 2002, published 2005).
Values joined by “and” are separate entries in the source; they are usually repeats but may differ in a detail not shown here. Equal entries are not always repeated. “Also recorded” adds a separate entry of the source. Where two headings read alike, the source gives them in different places.

How the values were obtained:
[1] = tested on: alloxan-induced diabetic Sprague-Dawley rats; experiment: Alloxan-induced diabetic nephropathy model; assay type: in vivo, rat; conditions: for serum creatinine level / proteinuria level: 12 weeks; for serum creatinine level: diabetic about 115; for proteinuria level: diabetic about 180
Procedure: Similar to streptozotocin, alloxan kills pancreatic β cells and induces type I diabetes (for review, see Cheta et al. (1998) J Pediatr Endocrinol Metab 11: 11-9). Alloxan is also widely used to induce experimental diabetic nephropathy in animals (FIG. 25). Adult female Sprague-Dawley rats (weighing 200-250 g) were intraperitoneally injected with alloxan (70 mg/kg body weight) to induce hyperglycemia. Renal arteries were clamped just prior to injection to prevent direct nephrotoxicity, and then clamps were removed 5 minutes after injection. At week 16 when renal function declined, animals were treated with OP-1 (10 μg/kg body weight, 3×/week, or 30 μg/kg body weight, 1×/week), enalapril (100 mg/L in drinking water) or the combination of OP-1 and enalapril. Control animals without alloxan treatment were handled in all other ways like treated animals. The treatment duration was 12 weeks. All rats were sacrificed after […].

[2] = tested on: streptozotocin diabetic Sprague-Dawley rats; assay type: in vivo; conditions: for Protein Ex (mg/day), urine protein excretion / kidney weight: at 32 weeks; for Mortality: deaths/animals; for GFR (ml/min/100 g bw): inulin clearance at 32 weeks; for prevalence of sclerotic glomeruli (glomerulosclerosis): DM vehicle 10.7±4.0%
Procedure: A long-term streptozotocin model of diabetic nephropathy was used to test and compare the therapeutic actions of BMP-7 with those of Enalapril. The study design was a treatment protocol beginning at 16 weeks when glomerular hypertrophy and proteinuria were established. The effects of therapy with BMP-7 (10, 30, or 100 μg/kg iv, biw) were compared to a maximal dose of Enalapril (20 mg/kg) and to a vehicle control. […] The GFR of 32 week diabetic Enalapril treated rats was 0.58±0.06 (not significant compared to vehicle treated and sham injected rats 0.55±0.02).
Animals: Female Sprague-Dawley rats 10 weeks of age weighing 190-220 g were used. Animals were allowed free access to standard rat chow and to tap water. Diabetes mellitus was induced by a single tail-vein injection of Streptozotocin (STZ 62 mg/kg of body weight, Sigma chemical company, St. Louis, Mo.) dissolved in normal saline at day 0. The diabetic state was confirmed 72 hours later by the determination of blood glucose concentration>300 mg/dl. From day 3, all the diabetic rats received daily subcutaneous injections of 1.0-7.0 u human recombinant long-acting insulin injection (Eli Lilly & Co., Indianapolis, Ind.) as required to maintain the blood glucose concentration between 300-500 mg/dl. Tail blood glucose levels were measured twice a week with an Accu—Chek™ Advantage meter (Roche Diagnostic Corporation, Indianapolis, Ind.). Body weights were taken once a week. Food and water intake were monitored daily.
Renal hypertrophy was well developed at 16 weeks prior to treatment with vehicle, BMP-7, or enalapril. […], animals were divided into 8 groups. Group 1 were 16 weeks of DM. Group 2 were 16 weeks normal controls. Group 3 DM animals were treated with tail-vein injection of vehicle twice a week for 16 weeks. Group 4, Group 5, and Group 6 were DM animals treated with tail-vein injections of BMP-7 100, 30, and 10 μg/kg body weight respectively twice a week for 16 weeks. Group 7 were treated with Enalapril 20 mg/kg through the drinking water for 16 weeks. […] Group 1 and Group 2 animals were sacrificed at 16 weeks. The others were sacrificed at 32 weeks. All treatments began at 16 weeks and continued through 32 weeks. Glomerular filtration rate (GFR), urine albumin excretion, kidney weight, glomerular area, mesangial matrix area, interstitial volume, monocyte and macrophage infiltration, thickness of glomerular basement membrane (GBM) and glomerulosclerosis were measured.
Renal Function: In all animals, glomerular filtration rate (GFR) was measured as the clearance of inulin. Rats were anesthetized with a Ketamine/Xylozine cocktail. A catheter was inserted into the femoral vein under a dissecting microscope for infusion. Another catheter was placed into the femoral artery for collecting blood samples. Urine was collected by bladder cannulation.
After the completion of surgery, a bolus of 2 ml/kg of 3% inulin (Cypros Pharmaceutical Corp, W. Carlsbad, Calif.) and 0.2% p-aminohippurate (PAH) in normal saline was infused as a priming load, followed by a sustaining infusion of the same solution at the rate of 8 ml/h·kg. Urine collection was initiated for three 20-minute collection periods after an hour of equilibration. An arterial blood sample was obtained during each clearance period. Plasma and urine were analyzed for inulin.
Urine volume was measured and urinary protein concentration was determined with a Bio-Rad protein assay.
Preparation of Kidneys: After the clearance studies, the rats were euthanized. Both kidneys were rapidly removed and placed in ice-cold phosphate buffered saline (PBS). Kidneys were weighed and then sliced on a cold glass plate. Two 2 mm coronal sections were immersed in Histochoice and in 10% buffered formalin. Kidney sections were embedded in paraffin and cut at 3 μm and stained with hematoxylin and eosin, Gomori's Trichrome and periodic acid Schiff (PAS).
Renal Morphology: The morphometric analysis was done in a blind manner. […]

[3] = tested on: streptozotocin-induced diabetic Sprague-Dawley rats; experiment: Streptozotocin-induced diabetic nephropathy model (Example 3); assay type: in vivo, rat
Procedure: Streptozotocin kills pancreatic β cells and induces type I diabetes (for review, see Cheta et al. (1998) J Pediatr Endocrinol Metab 11:11-9). It is widely used to induce experimental diabetic nephropathy in animals (see FIG. 22). Adult female Sprague-Dawley rats (weighing 200-250 g) were intraperitoneally injected with streptozotocin (60 mg/kg body weight) to induce hyperglycemia. Hyperglycemic rats then received daily injections of insulin to maintain blood glucose between 200-400 mg/dL. At week 16 when renal function declined, animals were treated weekly with OP-1 (10, 30 or 100 μg/kg body weight), enalapril (50 or 100 mg/L in drinking water) or a combination of OP-1 and enalapril. Control animals without streptozotocin treatment were handled in all other ways like treated animals. Animals were sacrificed at week 32 post-streptozotocin treatment.

[4] = BMP-7 10 μg/kg iv twice a week, weeks 16-32
[5] = BMP-7 10 μg/kg iv twice a week, weeks 16-32, listed as BMP
[6] = BMP-7 30 μg/kg iv twice a week, weeks 16-32
[7] = BMP-7 30 μg/kg iv twice a week, weeks 16-32, listed as BMP
[8] = BMP-7 100 μg/kg iv twice a week (high dose), weeks 16-32
[9] = BMP-7 100 μg/kg iv twice a week (high dose), weeks 16-32, listed as BMP
[10] = BMP-7 100 μg/kg iv twice a week, weeks 16-32

B1: OP-1: osteogenic protein-1 (OP-1, also known as BMP-7), morphogen of the OP/BMP family; OP-1 used interchangeably with sBMP-7 (protein)
chain: STGSKQRSQNRSKTPKNQEALRMANVAENSSSDQRQACKKHELYVSFRDLGWQDWIIAPEGYAAYYCEGECAFPLNSYMNATNHAIVQTLVHFINPETVPKPCCAPTQLNAISVLYFDDSSNVILKKYRNMVVRACGCH
Q: How did the “proteinuria level (in words)” value ([1]; 12 weeks of treatment) turn out when B1 was run?
A: reduces the proteinuria level; also recorded: reduce the preteinuria level

Q: And the “serum creatinine level (in words)” value ([1]; 12 weeks of treatment)?
A: decreases the serum creatinine level; also recorded: dramatically reduces the serum creatinine level

Q: What about the serum creatinine level ([1]; OP-1 10 μg/kg 3×/week) of the same molecule?
A: about 65 μmole/L

Q: And the proteinuria level ([1]; OP-1 10 μg/kg 3×/week)?
A: about 80 mg/dL/24 hr

Q: What about the serum creatinine level ([1]; OP-1 30 μg/kg 1×/week) of the same molecule?
A: ~55 µmol/L

Q: What about the proteinuria level ([1]; OP-1 30 μg/kg 1×/week) of the same molecule?
A: ~110 mg/dL/24 hr

Q: What about the “renal BMP-7 expression (in situ hybridization)” value ([2]; 32 weeks) of the same molecule?
A: restored BMP-7 expression at high levels in the collecting duct; also recorded: restored BMP-7 expression in its normal pattern at high levels; also recorded: restored the normal distribution of BMP-7 expression

Q: What about the “renal Wnt4 expression (in situ hybridization)” value ([2]; 32 weeks) of the same molecule?
A: without affecting Wnt4 expression; also recorded: do not affect Wnt4 expression; also recorded: had no effect on Wnt4 expression

Q: What about the Cause-Mortality unknown ([2]; BMP-7 10 μg/kg iv twice a week) of the same molecule?
A: 2/9

Q: And the “Protein Ex (mg/day), urine protein excretion” value (“Protein Ex (mg/day)” below) [2, 4]?
A: 59.46 ± 21.84 mg/day

Q: And the “kidney weight” value [2, 4]?
A: 1.19 ± 0.03 g

Q: And the “Protein Ex (mg/day)” value [2, 5]?
A: 59.46 ± 21.84 mg/day

Q: What about the “kidney weight” value [2, 5] of the same molecule?
A: 1.19 ± 0.03 g

Q: What about the Mortality [2, 4] of the same molecule?
A: 2/9

Q: And the “GFR (ml/min/100 g bw)” value [2, 4]?
A: 0.59±0.07 ml/min/100 g bw

Q: What about the “GFR (ml/min/100 g bw)” value [2, 5] of the same molecule?
A: 0.59 ± 0.07 ml/min/100 g bw

Q: What about the “prevalence of sclerotic glomeruli (glomerulosclerosis)” value (shortened to “prevalence of sclerotic glomeruli”) ([2]; BMP-7 10 μg/kg, weeks 16-32) of the same molecule?
A: 4.1±1.4%

Q: And the Cause-Mortality anesthesia ([2]; BMP-7 30 μg/kg iv twice a week)?
A: 1/9

Q: What about the “Protein Ex (mg/day)” value [2, 6] of the same molecule?
A: 33.02 ± 9.11 mg/day

Q: What about the “kidney weight” value [2, 6] of the same molecule?
A: 1.19 ± 0.03 g

Q: What about the “Protein Ex (mg/day)” value [2, 7] of the same molecule?
A: 33.02 ± 9.11 mg/day

Q: What about the “kidney weight” value [2, 7] of the same molecule?
A: 1.19 ± 0.03 g

Q: And the Mortality [2, 6]?
A: 1/9

Q: And the “GFR (ml/min/100 g bw)” value [2, 6]?
A: 0.61±0.09 ml/min/100 g bw and 0.62±0.09 ml/min/100 g bw

Q: And the “GFR (ml/min/100 g bw)” value [2, 7]?
A: 0.62 ± 0.09 ml/min/100 g bw

Q: What about the “prevalence of sclerotic glomeruli” value ([2]; BMP-7 30 μg/kg, weeks 16-32) of the same molecule?
A: 3.5±0.8%

Q: What about the Cause-Mortality hypoglycemia ([2]; BMP-7 100 μg/kg iv twice a week) of the same molecule?
A: 1/10

Q: And the “kidney weight” value [2, 8]?
A: 1.10 ± 0.03 g

Q: And the “kidney weight” value [2, 9]?
A: 1.10 ± 0.03 g

Q: And the “GFR (ml/min/100 g bw)” value [2, 8]?
A: 0.7±0.08 ml/min/100 g bw

Q: And the “GFR (ml/min/100 g bw)” value [2, 9]?
A: 0.70 ± 0.08 ml/min/100 g bw

Q: What about the “Protein Ex (mg/day)” value [2, 10] of the same molecule?
A: 14.27 ± 3.50 mg/day

Q: And the “Protein Ex (mg/day)” value ([2]; BMP-7 100 μg/kg iv twice a week, weeks 16-32, listed as BMP)?
A: 14.27 ± 3.50 mg/day

Q: What about the Mortality [2, 10] of the same molecule?
A: 1/10

Q: And the “prevalence of sclerotic glomeruli” value ([2]; BMP-7 100 μg/kg, weeks 16-32)?
A: 2.1±0.3%

Q: And the “cortical interstitial area / volume” value ([2]; BMP-7 high dose (100 μg/kg), weeks 16-32, DM vehicle 13.1±0.7%)?
A: 10.7±0.3%

Q: And the monocyte/macrophage tubulointerstitial infiltration ([2]; ED-1 positive cells, 32 weeks)?
A: decreased the tubulointerstitial infiltration

Q: And the “mesangial matrix accumulation (in words)” value ([2]; PAS / Trichrome histology at 32 weeks)?
A: dose dependent reduction in the accumulation of mesangial matrix; also recorded: more effective than Enalapril; also recorded: greater mesangial matrix accumulation than the two higher doses

Q: And the “glomerular area / glomerular hypertrophy (in words)” value ([2]; treatment weeks 16-32)?
A: significantly decreased; also recorded: partially reversed glomerular hypertrophy; also recorded: equally effective

Q: And the “glomerulosclerosis (in words)” value ([2]; treatment weeks 16-32)?
A: prevented by BMP-7 therapy more effectively than by Enalapril; also recorded: prevented the development of glomerulosclerosis; also recorded: markedly reduced; also recorded: prevented the development of glomerular sclerosis; also recorded: more effective than Enalapril; also recorded: decreased glomerular sclerosis; also recorded: significantly better than that of Enalapril

Q: And the “interstitial volume (in words)” value ([2]; treatment weeks 16-32)?
A: significantly decreased; also recorded: reversed the increase in the expanded interstitial volume; also recorded: equally effective

Q: What about the “systolic blood pressure (tail artery cuff)” value ([2]; treatment weeks 16-32) of the same molecule?
A: did not effect blood pressure until the final four weeks of therapy; also recorded: had no effect on blood pressure until after 28 weeks; also recorded: blood pressures were normalized; also recorded: did not affect blood pressure until late in the course of the study; also recorded: did not affect blood pressure until the last four weeks of therapy

Q: What about the “urine protein excretion / proteinuria / albuminuria (in words)” value ([2]; treatment weeks 16-32) of the same molecule?
A: reversed to normal; also recorded: more effective in reversing proteinuria; also recorded: dose dependently eliminated proteinuria; also recorded: more effective than Enalapril

Q: And the “GFR (in words)” value ([2]; treatment weeks 16-32, versus vehicle-treated diabetic and normal rats)?
A: normal or greater; also recorded: restored glomerular filtration rate to normal; also recorded: more effective than Enalapril; also recorded: restored GFR to normal or slightly above normal

Q: And the “kidney weight / renal hypertrophy (in words)” value ([2]; treatment weeks 16-32, versus vehicle-treated diabetic rats)?
A: equal in partially reversing kidney hypertrophy; also recorded: partially reversed diabetic renal hypertrophy; also recorded: partially restored kidney weights towards normal; also recorded: equally effective

Q: And the “mean GFR” value ([3]; OP-1 100 μg/kg weekly, weeks 16-32, 32-week diabetic animals about 0.38)?
A: about 0.7 ml/min/100 g body weight

Q: What about the proteinuria level ([3]; OP-1 30 and 100 μg/kg, enalapril 50 and 100 mg/L, or combination, diabetic about 140 mg/day) of the same molecule?
A: almost normal level; also recorded: reduces proteinuria; also recorded: significantly reduced the proteinuria level

Q: And the “glomerular filtration rate (in words)” value ([3]; weeks 16-32 treatment)?
A: significantly increased the glomerular filtration rate; also recorded: increases the glomerular filtration rate
